According to patent US20230038638A1, “COMPLEMENT FACTOR I-RELATED COMPOSITIONS AND METHODS” (published 2023):

Experiments:
[1] = molecular target: soluble human C3b (human) (UniProt P01024)
human C4b (human) = molecular target: T1, human C4b (human) (UniProt P0C0L5)
T1 sequence: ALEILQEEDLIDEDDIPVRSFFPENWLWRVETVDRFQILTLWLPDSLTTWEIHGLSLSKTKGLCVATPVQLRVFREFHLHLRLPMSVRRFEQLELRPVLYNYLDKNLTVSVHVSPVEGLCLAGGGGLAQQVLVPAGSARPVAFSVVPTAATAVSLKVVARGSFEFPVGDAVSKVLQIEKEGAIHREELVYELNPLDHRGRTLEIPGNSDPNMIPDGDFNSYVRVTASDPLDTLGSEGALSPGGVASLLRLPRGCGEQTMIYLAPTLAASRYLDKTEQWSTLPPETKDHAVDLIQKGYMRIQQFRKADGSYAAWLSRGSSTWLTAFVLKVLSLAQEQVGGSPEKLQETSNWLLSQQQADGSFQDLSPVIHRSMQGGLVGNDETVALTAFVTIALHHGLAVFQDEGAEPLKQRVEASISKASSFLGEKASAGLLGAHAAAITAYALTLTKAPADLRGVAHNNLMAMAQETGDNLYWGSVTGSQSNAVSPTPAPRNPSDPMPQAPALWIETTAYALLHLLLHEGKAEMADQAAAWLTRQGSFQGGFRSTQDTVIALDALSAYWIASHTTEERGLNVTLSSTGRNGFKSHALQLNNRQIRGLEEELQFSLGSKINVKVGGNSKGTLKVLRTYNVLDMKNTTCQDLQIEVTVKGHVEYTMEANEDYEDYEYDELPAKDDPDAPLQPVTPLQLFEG

iC3b Screen Ref Fold (fold vs CFI-HSA wild type) [1] | C4b Screen Ref Fold (fold vs CFI-HSA wild type) (human C4b (human)) | iC3b Screen Ref Fold (fold of CFI-HSA wild type) [1] | C4b Screen Ref Fold (fold of CFI-HSA wild type) (human C4b (human)) | iC3b Screen Ref Fold (fold of reference) [1] | Substance
0.03 | 0.34 | – | – | – | (HSA-GS)-V311-V565 - G(13) - K1-G310 (enzyme)
2.31 | 4.38 | – | – | – | CFI-HSA T377G; E457G (enzyme)
1.74 | 1.68 | – | – | – | CFI-HSA Y408L; E457G; D425R; E530Y (enzyme)
– | – | 0.49 | 1.8 | – | CFI-HSA variant S552G; F559L; V565I; P558S (enzyme)
0.01 | 0.15 | – | – | – | CFI-HSA variant A328C; W468C; K326Y; R327N (enzyme)
1.57 | 4.73 | – | – | – | CFI-HSA T377G; E457G; E461Q; N531G (enzyme)
0.04 | 0.13 | – | – | – | CFI-HSA variant S507A (enzyme)
0.71 | 0.09 | – | – | – | CFI-HSA variant Y408A (enzyme)
1.27 | 0.47 | – | – | – | CFI-HSA K424Q (enzyme)
– | – | 0 | 2.73 | – | CFI-HSA variant P535G; WT; GGSSGG (SEQ ID NO: 6); CR1(ccp15-17) (from UniProt P17927) (enzyme)
– | – | 1.74 | 1.35 | – | CFI-HSA variant K14E (enzyme)
1.46 | 0.53 | – | – | – | CFI-HSA K424H (enzyme)
1.09 | 0.77 | – | – | – | CFI-HSA Y553Q (enzyme)
– | – | 0.59 | 1.58 | – | CFI-HSA variant Y553H; F559L; V565I; P558S (enzyme)
0.63 | 0.6 | – | – | – | CFI-HSA Y553N (enzyme)
– | – | – | – | 0.82 | CFI-HSA variant Y408W (enzyme)
0.6 | 1.63 | – | – | – | fH_CCP1-4; GGSS(13); wt hCFI (enzyme)
0.91 | 0.28 | – | – | – | CFI-HSA K424L (enzyme)
– | – | 1.58 | 1.23 | – | CFI-HSA variant S552G; V565I (enzyme)
0.88 | 0.48 | – | – | – | CFI-HSA Y553G (enzyme)
0.84 | 1.1 | – | – | – | CFI-HSA D549Q (enzyme)
0.22 | 0.11 | – | – | – | CFI-HSA P535G; E530Y (enzyme)
0.1 | 1.11 | – | – | – | CFI-HSA R557S (enzyme)
– | – | 0.54 | 0.28 | – | CFI-HSA variant F559L; V565T (enzyme)
0.16 | 0.6 | – | – | – | CFI-HSA R365L (enzyme)
0.16 | 0.35 | – | – | – | CFI-HSA R365G (enzyme)
– | – | 0.7 | 1.08 | – | CFI-HSA variant Y408L; E457G; P535G; P558S (enzyme)

iC3b Screen Ref Fold (fold vs CFI-HSA wild type) [1] | C4b Screen Ref Fold (fold vs CFI-HSA wild type) (human C4b (human)) | iC3b Screen Ref Fold (fold of CFI-HSA wild type) [1] | C4b Screen Ref Fold (fold of CFI-HSA wild type) (human C4b (human)) | iC3b Screen Ref Fold (fold of reference) [1] | Substance
1.61 | 1.02 | – | – | – | CFI-HSA variant P535K (enzyme)
– | – | 0.97 | 1.26 | – | CFI-HSA variant Y408L; K534Q (enzyme)
2.27 | 3.75 | – | – | – | CFI-HSA T377G; E457G; E461Q (enzyme)
0.02 | -0.06 | – | – | – | CFI-HSA R365E (enzyme)
– | – | 1.39 | 1.07 | – | CFI-HSA variant Y408L; E457G; P535G; N422K (enzyme)
– | – | 1.63 | 3.88 | – | CFI-HSA variant D425R; Y408L; N531G; E457G; E461Q; R462K; F464Y; E416A (enzyme)
0 | 0.01 | – | – | – | CFI-HSA variant Y408L; N531G; E457G; E461Q; R462K; F464Y; S507A (enzyme)
0.16 | 0.24 | – | – | – | CFI-HSA K368G (enzyme)
0.15 | 0.07 | – | – | – | CFI-HSA variant 420-DGNK (SEQ ID NO: 15)-424 --> GG (enzyme)
1.15 | 0.27 | – | – | – | CFI-HSA K424D (enzyme)
0.03 | 0.25 | – | – | – | WT; GGSSGG (SEQ ID NO: 6); CCP_1-5; GGSS(3) + GGG; compstatin (enzyme)
– | – | 0.76 | 1.23 | – | CFI-HSA variant Y553H; F559L; V565I (enzyme)
– | – | 0.5 | 0.6 | – | CFI-HSA variant Y553F; P558S; F559L (enzyme)
– | – | 0.23 | 1.99 | – | CFI-HSA variant Y408L; E457G; P535G; WT; GGSSGG (SEQ ID NO: 6); CR1(ccp15-17) (from UniProt P17927) (enzyme)
0.14 | 0.46 | – | – | – | CFI-HSA E457G; N531G; E461Q; R462K; F464Y; GGSSGG (SEQ ID NO: 6); CR1 (ccp1-3) (from UniProt P17927) (enzyme)
0.93 | 4.46 | – | – | – | CFI-HSA N531G; E457G; E461Q; R557A (enzyme)
1.11 | 1.56 | – | – | – | CFI-HSA Y553H (enzyme)
– | – | – | – | 0 | CFI-HSA variant Y408V (enzyme)
0.64 | – | – | – | – | CFI-HSA variant K504Q (enzyme)
– | – | – | – | 0.51 | CFI-HSA variant T346R; K504E; E530R (enzyme)
0.02 | – | – | – | – | CFI-HSA variant Y408D (enzyme)
0.04 | – | – | – | – | CFI-HSA variant Y408T (enzyme)
0.65 | – | – | – | – | CFI-HSA variant Y408K (enzyme)
0.06 | – | – | – | – | CFI-HSA variant N446Q; N476Q; N518Q (enzyme)
– | – | – | – | 0.23 | CFI-HSA variant Y408E (enzyme)
0.03 | – | – | – | – | CFI-HSA variant I317D-R318D-R319D-K320D-R321K (enzyme)
0.03 | – | – | – | – | CFI-HSA variant Y4081 (enzyme)
